Test results reported in US20230212228A1 (ETH Z RICH, published 2023).
Groups on a side chain read outwards from the residue. No end group written: not given here. Mal‑Cy5 = Cy5-maleimide thiol adduct on the Cys side chain

B1: Cy5-FnBPA5 (peptide)
peptide: C([maleimide-Cy5])GGGQVTTESNLVEFDEESTKGIVTGAVSDHTTVEDTK
modifications: not fully specified
notes: A payload-GGG- format by amide bond is also mentioned; also called Cy5-labelled FnBPA5; FnBPA5 peptide

Columns and labels:
[1] = target: T1, Fib1, N-terminal 30 kDa fragment of fibronectin (Homo sapiens (Human), UniProt P02751 32-290); test: fluorescence polarization/anisotropy, Cy5-labelled peptide (48 nM) titrated with Fib1 in PBS pH 7.4
T1 construct: also called Fib1 construct; 30 kDa N-terminal fragment of fibronectin containing the N-terminal FnI1-5 modules

[2] = target: T1, Fib1, N-terminal 30 kDa fragment of …; test: fluorescence polarization, Cy5-labelled peptide titrated with Fib1

T1 sequence (P02751 32-290 limits assumed): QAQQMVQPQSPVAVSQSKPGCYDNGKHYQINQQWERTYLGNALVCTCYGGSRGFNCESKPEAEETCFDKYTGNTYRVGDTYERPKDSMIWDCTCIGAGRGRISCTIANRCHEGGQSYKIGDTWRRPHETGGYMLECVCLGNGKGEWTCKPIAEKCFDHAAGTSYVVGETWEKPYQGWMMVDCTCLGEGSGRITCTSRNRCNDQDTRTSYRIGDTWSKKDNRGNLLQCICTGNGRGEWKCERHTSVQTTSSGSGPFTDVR

Row | Binder | Kd [1] [nM] | binding result [2]
1 | B1 | 102 | –
2 | C(Mal‑Cy5)GGGQVTTGSNLVEFTEESLGIVTGAVSDHTTVEDT (also called Cy5-labelled FnBPA5.1) [Cy5-FnBPA5.1] | – | binds
